The values that follow come from IntAct's records for PubMed 31515488.

B1: Transcription initiation factor IIA subunit 1 (Homo sapiens), P52655-1 (parent)
chain: MANSANTNTVPKLYRSVIEDVINDVRDIFLDDGVDEQVLMELKTLWENKLMQSRAVDGFHSEEQQLLLQVQQQHQPQQQQHHHHHHHQQAQPQQTVPQQAQTQQVLIPASQQATAPQVIVPDSKLIQHMNASNMSAAATAATLALPAGVTPVQQILTNSGQLLQVVRAANGAQYIFQPQQSVVLQQQVIPQMQPGGVQAPVIQQVLAPLPGGISPQTGVIIQPQQILFTGNKTQVIPTTVAAPTPAQAQITATGQQQPQAQPAQTQAPLVLQVDGTGDTSSEEDEDEEEDYDDDEEEDKEKDGAEDGQVEEEPLNSEDDVSDEEGQELFDTENVVVCQYDKIHRSKNKWKFHLKDGIMNLNGRDYIFSKAIGDAEW
B2: G patch domain and ankyrin repeat-containing protein 1 (Homo sapiens), O95872 (parent)
chain: MSRPLLITFTPATDPSDLWKDGQQQPQPEKPESTLDGAAARAFYEALIGDESSAPDSQRSQTEPARERKRKKRRIMKAPAAEAVAEGASGRHGQGRSLEAEDKMTHRILRAAQEGDLPELRRLLEPHEAGGAGGNINARDAFWWTPLMCAARAGQGAAVSYLLGRGAAWVGVCELSGRDAAQLAEEAGFPEVARMVRESHGETRSPENRSPTPSLQYCENCDTHFQDSNHRTSTAHLLSLSQGPQPPNLPLGVPISSPGFKLLLRGGWEPGMGLGPRGEGRANPIPTVLKRDQEGLGYRSAPQPRVTHFPAWDTRAVAGRERPPRVATLSWREERRREEKDRAWERDLRTYMNLEF
partner: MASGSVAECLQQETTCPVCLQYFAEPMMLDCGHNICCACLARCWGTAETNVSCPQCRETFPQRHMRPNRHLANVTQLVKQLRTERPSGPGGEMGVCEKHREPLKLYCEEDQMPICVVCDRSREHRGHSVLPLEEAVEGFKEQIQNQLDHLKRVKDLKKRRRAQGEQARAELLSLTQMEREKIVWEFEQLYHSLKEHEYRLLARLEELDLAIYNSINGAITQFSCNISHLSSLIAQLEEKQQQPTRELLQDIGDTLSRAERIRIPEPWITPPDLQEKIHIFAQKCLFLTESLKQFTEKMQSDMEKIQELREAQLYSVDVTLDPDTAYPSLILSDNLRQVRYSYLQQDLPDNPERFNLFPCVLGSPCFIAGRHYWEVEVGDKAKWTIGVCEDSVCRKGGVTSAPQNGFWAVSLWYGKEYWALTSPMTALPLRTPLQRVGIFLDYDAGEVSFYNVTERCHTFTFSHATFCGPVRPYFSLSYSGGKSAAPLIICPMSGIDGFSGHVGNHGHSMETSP
B3: Synaptotagmin-like protein 5 (Homo sapiens), Q8TDW5 (parent)
chain: MSKNSEFINLSFLLDHEKEMILGVLKRDEYLKKVEDKRIRKLKNELLEAKRRSGKTQQEASRVCVHCHRNLGLIFDRGDPCQACSLRVCRECRVAGPNGSWKCTVCDKIAQLRIITGEWFFEEKAKRFKQVNVLGTDVVRQSILRRSPGAEEVQSQEQTRQDAEKSDTSPVAGKKASHDGPKRKGFLLSKFRSATRGEIITPKTDTGRSYSLDLDGQHFRSLKSPPGSDRGSTGSSDLNDQEPGPRTPKSSRSNGVTPGTQSSPAPSTRTVTSVISREYGFENSMDLAAIEGTSQELTKSHRRNTSGTPSIAVSGTSLSSDQSRSELDLSESFTEDSEDTVSIRSKSVPGALDKDSLEETEESIDALVSSQLSTNTHRLASGLSTTSLNSMMSVYSETGDYGNVKVSGEILLHISYCYKTGGLYIFVKNCRNLAIGDEKKQRTDAYVKSYLLPDKSRNNKRKTKIRTGTNPEFNETLKYTISHTQLETRTLQLSVWHYDRFGRNSFLGEVEIPFDSWNFENPTDEWFVLQPKVEFAPDIGLQYKGELTVVLRYIPPEENLMLPPEQLQGNKTFKKGKKKESPVISGGILEVFIKEAKNLTAVKSGGTSDSFVKGYLLPDDSKATKHKTLVIKKSVNPQWNHTFMFSGIHPQDIKNVCLELTIWDKEAFSSNIFLGGVRLNSGSGVSHGKNVDWMDSQGEEQRLWQKMANNPGTPFEGVLMLRSSMGKCRL
partner: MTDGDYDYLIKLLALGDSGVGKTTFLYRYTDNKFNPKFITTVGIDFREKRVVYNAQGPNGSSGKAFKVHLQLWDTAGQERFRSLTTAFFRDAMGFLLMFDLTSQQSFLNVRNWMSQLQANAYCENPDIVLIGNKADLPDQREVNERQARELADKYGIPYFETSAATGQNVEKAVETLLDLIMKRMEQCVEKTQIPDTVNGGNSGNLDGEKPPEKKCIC
B4: Myomegalin (Homo sapiens), Q5VU43-2 (parent)
chain: MKEICRICARELCGNQRRWIFHTASKLNLQVLLSHVLGKDVPRDGKAEFACSKCAFMLDRIYRFDTVIARIEALSIERLQKLLLEKDRLKFCIASMYRKNNDDSGAEIKAGNGTVDMSVLPDARYSALLQEDFAYSGFECWVENEDQIQEPHSCHGSEGPGNRPRRCRGCAALRVADSDYEAICKVPRKVARSISCGPSSRWSTSICTEEPALSEVGPPDLASTKVPPDGESMEEETPGSSVESLDASVQASPPQQKDEETERSAKELGKCDCCSDDQAPQHGCNHKLELALSMIKGLDYKPIQSPRGSRLPIPVKSSLPGAKPGPSMTDGVSSGFLNRSLKPLYKTPVSYPLELSDLQELWDDLCEDYLPLRVQPMTEELLKQQKLNSHETTITQQSVSDSHLAELQEKIQQTEATNKILQEKLNEMSYELKCAQESSQKQDGTIQNLKETLKSRERETEELYQVIEGQNDTMAKLREMLHQSQLGQLHSSEGTSPAQQQVALLDLQSALFCSQLEIQKLQRVVRQKERQLADAKQCVQFVEAAAHESEQQKEASWKHNQELRKALQQLQEELQNKSQQLRAWEAEKYNEIRTQEQNIQHLNHSLSHKEQLLQEFRELLQYRDNSDKTLEANEMLLEKLRQRIHDKAVALERAIDEKFSALEEKEKELRQLRLAVRERDHDLERLRDVLSSNEATMQSMESLLRAKGLEVEQLSTTCQNLQWLKEEMETKFSRWQKEQESIIQQLQTSLHDRNKEVEDLSATLLCKLGPGQSEIAEELCQRLQRKERMLQDLLSDRNKQVLEHEMEIQGLLQSVSTREQESQAAAEKLVQALMERNSELQALRQYLGGRDSLMSQAPISNQQAEVTPTGRLGKQTDQGSMQIPSRDDSTSLTAKEDVSIPRSTLGDLDTVAGLEKELSNAKEELELMAKKERESQMELSALQSMMAVQEEELQVQAADMESLTRNIQIKEDLIKDLQMQLVDPEDIPAMERLTQEVLLLREKVASVESQGQEISGNRRQQLLLMLEGLVDERSRLNEALQAERQLYSSLVKFHAHPESSERDRTLQVELEGAQVLRSRLEEVLGRSLERLNRLETLAAIGGAAAGDDTEDTSTEFTDSIEEEAAHHSHQQL
partner: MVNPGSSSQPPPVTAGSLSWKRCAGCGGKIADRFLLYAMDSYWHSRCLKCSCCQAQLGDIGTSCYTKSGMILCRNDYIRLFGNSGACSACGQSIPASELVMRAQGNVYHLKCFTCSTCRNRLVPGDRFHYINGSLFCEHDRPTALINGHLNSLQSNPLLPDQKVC
B5: ATP synthase mitochondrial F1 complex assembly factor 2 (Homo sapiens), Q8N5M1 (parent)
chain: MWRSCLRLRDGGRRLLNRPAGGPSASMSPGPTIPSPARAYAPPTERKRFYQNVSITQGEGGFEINLDHRKLKTPQAKLFTVPSEALAIAVATEWDSQQDTIKYYTMHLTTLCNTSLDNPTQRNKDQLIRAAVKFLDTDTICYRVEEPETLVELQRNEWDPIIEWAEKRYGVEISSSTSIMGPSIPAKTREVLVSHLASYNTWALQGIEFVAAQLKSMVLTLGLIDLRLTVEQAVLLSRLEEEYQIQKWGNIEWAHDYELQELRARTAAGTLFIHLCSESTTVKHKLLKE
B6: Proto-oncogene serine/threonine-protein kinase mos (Homo sapiens), P00540 (parent)
chain: MPSPLALRPYLRSEFSPSVDARPCSSPSELPAKLLLGATLPRAPRLPRRLAWCSIDWEQVCLLQRLGAGGFGSVYKATYRGVPVAIKQVNKCTKNRLASRRSFWAELNVARLRHDNIVRVVAASTRTPAGSNSLGTIIMEFGGNVTLHQVIYGAAGHPEGDAGEPHCRTGGQLSLGKCLKYSLDVVNGLLFLHSQSIVHLDLKPANILISEQDVCKISDFGCSEKLEDLLCFQTPSYPLGGTYTHRAPELLKGEGVTPKADIYSFAITLWQMTTKQAPYSGERQHILYAVVAYDLRPSLSAAVFEDSLPGQRLGDVIQRCWRPSAAQRPSARLLLVDLTSLKAELG
partner: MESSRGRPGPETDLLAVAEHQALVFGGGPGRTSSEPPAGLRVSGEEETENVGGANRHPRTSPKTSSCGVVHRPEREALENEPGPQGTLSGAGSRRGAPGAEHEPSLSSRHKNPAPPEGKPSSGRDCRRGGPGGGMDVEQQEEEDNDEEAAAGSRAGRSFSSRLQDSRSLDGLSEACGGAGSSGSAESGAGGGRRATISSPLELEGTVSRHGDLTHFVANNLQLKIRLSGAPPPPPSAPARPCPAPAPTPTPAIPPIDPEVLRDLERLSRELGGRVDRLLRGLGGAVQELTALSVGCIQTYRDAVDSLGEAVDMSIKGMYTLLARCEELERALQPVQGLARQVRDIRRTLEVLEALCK
B7: Signal transducing adapter molecule 1 (Homo sapiens), Q92783 (parent)
chain: MPLFATNPFDQDVEKATSEMNTAEDWGLILDICDKVGQSRTGPKDCLRSIMRRVNHKDPHVAMQALTLLGACVSNCGKIFHLEVCSRDFASEVSNVLNKGHPKVCEKLKALMVEWTDEFKNDPQLSLISAMIKNLKEQGVTFPAIGSQAAEQAKASPALVAKDPGTVANKKEEEDLAKAIELSLKEQRQQSTTLSTLYPSTSSLLTNHQHEGRKVRAIYDFEAAEDNELTFKAGEIITVLDDSDPNWWKGETHQGIGLFPSNFVTADLTAEPEMIKTEKKTVQFSDDVQVETIEPEPEPAFIDEDKMDQLLQMLQSTDPSDDQPDLPELLHLEAMCHQMGPLIDEKLEDIDRKHSELSELNVKVMEALSLYTKLMNEDPMYSMYAKLQNQPYYMQSSGVSGSQVYAGPPPSGAYLVAGNAQMSHLQSYSLPPEQLSSLSQAVVPPSANPALPSQQTQAAYPNTMVSSVQGNTYPSQAPVYSPPPAATAAAATADVTLYQNAGPNMPQVPNYNLTSSTLPQPGGSQQPPQPQQPYSQKALL

Variants of B1 are the subject of the first assay. The conditions noted are these: with nfya_human NFYA.
Regarding L30V, the “effect of a mutation on the interaction” value was “with no effect”.

A further assay covers variants of B2. The settings on record: with tri27_human TRIM27, P14373.
D56E: the “effect of a mutation on the interaction” value was “disrupting interaction strength”.

The next assay covers variants of B3. The conditions noted are these: with rb27b_human RAB27B.
On to R160H, for which the “effect of a mutation on the interaction” value is on record as “with no effect”.

In a further assay the parent is B4. The conditions noted are these: with lmo4_human LMO4, P61968.
For the variant N28S, the “effect of a mutation on the interaction” value is “with no effect”.

Variants of B5 are the subject of the next assay. The conditions noted are these: with tri23_human TRIM23, P36406.
Chain of tri23_human TRIM23, P36406 (P36406 whole entry): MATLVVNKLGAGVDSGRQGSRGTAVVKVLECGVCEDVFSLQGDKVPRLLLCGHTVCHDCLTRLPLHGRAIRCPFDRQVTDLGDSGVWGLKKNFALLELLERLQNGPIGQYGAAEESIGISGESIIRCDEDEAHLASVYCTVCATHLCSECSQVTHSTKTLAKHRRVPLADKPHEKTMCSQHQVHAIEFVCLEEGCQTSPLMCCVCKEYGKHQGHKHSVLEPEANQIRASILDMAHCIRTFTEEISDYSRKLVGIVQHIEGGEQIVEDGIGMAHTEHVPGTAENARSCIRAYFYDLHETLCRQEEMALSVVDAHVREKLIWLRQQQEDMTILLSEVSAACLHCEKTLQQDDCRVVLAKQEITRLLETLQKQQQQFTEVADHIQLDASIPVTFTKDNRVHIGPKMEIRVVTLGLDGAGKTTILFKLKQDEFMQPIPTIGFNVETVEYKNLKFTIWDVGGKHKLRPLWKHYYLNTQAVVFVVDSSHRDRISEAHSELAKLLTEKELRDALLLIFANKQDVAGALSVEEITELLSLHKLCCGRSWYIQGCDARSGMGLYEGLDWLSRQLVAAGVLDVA
E241G: the “effect of a mutation on the interaction” value is “with no effect”.

Variants of B5 are the subject of a further assay. The settings on record: with ews_human EWSR1, Q01844.
Chain of ews_human EWSR1, Q01844 (Q01844 whole entry): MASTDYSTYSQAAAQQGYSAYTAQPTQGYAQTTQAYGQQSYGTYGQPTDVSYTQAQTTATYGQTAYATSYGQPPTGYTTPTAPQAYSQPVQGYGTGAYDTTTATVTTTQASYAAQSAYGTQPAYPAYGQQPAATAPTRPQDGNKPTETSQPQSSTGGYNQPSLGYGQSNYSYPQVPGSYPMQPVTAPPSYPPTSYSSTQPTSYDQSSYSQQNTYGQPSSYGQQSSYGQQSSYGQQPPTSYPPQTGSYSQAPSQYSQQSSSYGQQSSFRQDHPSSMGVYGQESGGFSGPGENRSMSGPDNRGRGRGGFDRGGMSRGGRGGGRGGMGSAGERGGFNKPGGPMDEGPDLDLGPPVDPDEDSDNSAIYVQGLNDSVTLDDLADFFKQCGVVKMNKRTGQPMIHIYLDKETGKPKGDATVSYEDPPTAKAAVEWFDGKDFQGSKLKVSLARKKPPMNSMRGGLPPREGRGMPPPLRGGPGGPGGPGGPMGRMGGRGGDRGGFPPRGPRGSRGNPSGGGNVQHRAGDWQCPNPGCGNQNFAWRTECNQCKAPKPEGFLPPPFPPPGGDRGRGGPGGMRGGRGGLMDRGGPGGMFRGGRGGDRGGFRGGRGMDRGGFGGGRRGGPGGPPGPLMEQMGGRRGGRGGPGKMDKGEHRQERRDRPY
In the case of E241G, the “effect of a mutation on the interaction” value is on record as “with no effect”.

The variants in a further assay derive from B6. The conditions noted are these: with borc6_human BORCS6, Q96GS4.
Take A123T: the “effect of a mutation on the interaction” value was “disrupting interaction strength”.

In the case of A105S, the “effect of a mutation on the interaction” value was “with no effect”.

Variants of B7 are the subject of another assay. The conditions noted are these: with hgs_human HGS.
With I350T, the “effect of a mutation on the interaction” value is given as “with no effect”.

As to V61I, the “effect of a mutation on the interaction” value is listed as “with no effect”.

For the variant I343T, the “effect of a mutation on the interaction” value was “with no effect”.
